Paper PMC6900541 (Proceedings of the National Academy of Sciences of the …, 2019)

Biological target: T1, human PD-L2 ectodomain (human, UniProt Q9BQ51 20-220)
T1 sequence: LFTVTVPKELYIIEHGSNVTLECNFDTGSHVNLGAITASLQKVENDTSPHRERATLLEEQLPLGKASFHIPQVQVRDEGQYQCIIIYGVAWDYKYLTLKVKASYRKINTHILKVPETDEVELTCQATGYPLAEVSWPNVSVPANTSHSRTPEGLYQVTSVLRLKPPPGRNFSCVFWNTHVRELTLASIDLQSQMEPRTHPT
Experiment: BLI

Kd: 2.6 nM
B1: human PD-1 triple mutant (N74G T76P A132V), PD-1-Fc (Fc fusion)
chain: LDSPDRPWNPPTFSPALLVVTEGDNATFTCSFSNTSESFVLNWYRMSPSGQPDKLAAFPEDRSQPGQDCRFRVTQLPNGRDFHMSVVRARRNDSGTYLCGAISLAPKVQIKESLRAELRVTERRAEVPTAHPSPSPRPAGQFQTLV
